Source: paper PMC12720113, “The binding mechanism of a novel ferrous ion chelating peptide from chicken blood hemoglobin and the bioavailability of the chelate” (Food Chemistry: X, 2025)

Tested on: Caco-2 cells
Assay: Caco-2 cell viability assay (MTT)
Type: cell-based
Details: 24 h, 490 nm, means ± SEM
Experimental: Caco-2 cell viability assay was conducted on […]-Fe according to the method of [Wu et al. (2019)]. And lactoferrin was chosen as an experimental control. When the cell fusion rate was close to 80 %, the cells were dissociated and passaged using the trypsin-EDTA mixed digest. Cultivate the 23rd generation of cells in the logarithmic growth phase at 37 °C and 5 % CO₂ for 24 h. Then, a gradient concentration of […]-Fe and Ac-[…]-Fe was added to the wells of the experimental group, and all the samples were incubated for 24 h. After incubation, 20 μL of MTT reagent was added to each well. After 2 h of reaction, 150 μL of DMSO was added and agitated for 10 min. The absorbance values at 490 nm were measured to reflect cell activity levels. Cell relative activity (%) was calculated:(3) Relative cell viability%=As−Ab/Ac−Ab×100 where: As represents the absorbance value of the sample treatment, Ab represents the absorbance value without cells, and Ac represents the absorbance value without sample treatment.

B1: lactoferrin (protein, UniProt P24627 20-708, looked up)
Lactotransferrin: APRKNVRWCTISQPEWFKCRRWQWRMKKLGAPSITCVRRAFALECIRAIAEKKADAVTLDGGMVFEAGRDPYKLRPVAAEIYGTKESPQTHYYAVAVVKKGSNFQLDQLQGRKSCHTGLGRSAGWIIPMGILRPYLSWTESLEPLQGAVAKFFSASCVPCIDRQAYPNLCQLCKGEGENQCACSSREPYFGYSGAFKCLQDGAGDVAFVKETTVFENLPEKADRDQYELLCLNNSRAPVDAFKECHLAQVPSHAVVARSVDGKEDLIWKLLSKAQEKFGKNKSRSFQLFGSPPGQRDLLFKDSALGFLRIPSKVDSALYLGSRYLTTLKNLRETAEEVKARYTRVVWCAVGPEEQKKCQQWSQQSGQNVTCATASTTDDCIVLVLKGEADALNLDGGYIYTAGKCGLVPVLAENRKSSKHSSLDCVLRPTEGYLAVAVVKKANEGLTWNSLKDKKSCHTAVDRTAGWNIPMGLIVNQTGSCAFDEFFSQSCAPGADPKSRLCALCAGDDQGLDKCVPNSKEKYYGYTGAFRCLAEDVGDVAFVKNDTVWENTNGESTADWAKNLNREDFRLLCLDGTRKPVTEAQSCHLAVAPNHAVVSRSDRAAHVKQVLLHQQALFGKNGKNCPDKFCLFKSETKNLLFNDNTECLAKLGGRPTYEEYLGTEYVTAIANLKKCSTSPLLEACAFLTR
notes: conventional iron supplement, experimental control
Relative vitality of cells (%) (Caco-2, 0.125 mg/mL): 92.86 ± 1.03%
Relative vitality of cells (%) (Caco-2, 0.25 mg/mL): 81.43 ± 0.94%
Relative vitality of cells (%) (Caco-2, 0.5 mg/mL): 77.76 ± 1.27%
Relative vitality of cells (%) (Caco-2, 1 mg/mL): 74.83 ± 0.84%
Relative vitality of cells (%) (Caco-2, 2 mg/mL): 66.90 ± 1.42%
